Assay [1] concerns cultured neurons. Put plainly: cell culture model of glutamate toxicity (Hoechst DNA staining). The assay is classed as cell-based. The settings on record: transduction prior to or immediately after glutamate (100 μM, 30 min); staining 24 hr later. The text has this: Using a cell culture model of glutamate toxicity we first investigated the functional significance of STEP's activation following excitotoxic NMDA receptor stimulation. […] As described in Poddar et al., 2010, using a substrate-trapping mutant we established that p38 MAPK is a substrate of STEP and the KIM domain of STEP is involved in STEP-p38 interaction. NR2B-NMDAR mediated activation of STEP promotes cell survival by down-regulating p38 MAPK signaling pathway. However sustained NMDAR stimulation results in degradation of active STEP leading to secondary activation of p38 MAPK that triggers cell death pathways. Based on these findings we generated a constitutively active form of a STEP peptide that can bind irreversibly to p38 MAPK. It was rendered cell permeable by fusion to the protein transduction domain of the human immunodeficiency virus-type I, TAT.

A further assay concerns striatum. Nature of the assay: animal model of glutamate toxicity, stereotactic injection into the striatum. The assay is classed as in vivo. The settings on record: injected stereotactically into the striatum prior to glutamate.
For assay [2], the system named is cultured neurons. Nature of the assay: oxygen-glucose deprivation (OGD), in vitro model of cerebral ischemia. The assay is classed as cell-based. The settings on record: pre-incubation with peptide; OGD 2 hr; viability tested 24 hr later. Here is the method:
In subsequent experiments we used oxygen-glucose deprivation (OGD) as an in vitro model of cerebral ischemia to evaluate the role of TAT-STEP peptide in neuroprotection following an ischemic insult. Cultured neurons were submerged in glucose free buffer in a hypoxic chamber (oxygen-glucose deprivation or OGD) for 2 hr in the presence or absence of the peptide and cell viability was tested by Hoechsy DNA staining 24 hr later.

For a further assay, the system named is male Wistar rats. Nature of the assay: middle cerebral artery occlusion (MCAO) acute ischemic stroke model. The settings on record: intravenous, reperfusion 24 hr, vs saline, p<0.01. The assay is classed as in vivo, rat. How it is done: FIG. 13 is a quantitative analysis of the infarct volume. Infarct volumes are expressed as a percentage of the contralateral (control) hemisphere and the data are mean +/− SEM (p<0.01).
FIG. 15 is a quantitative analysis of the infarct volume. Infarct volumes are expressed as a percentage of the contralateral (control) hemisphere and the data are mean +/− SEM (p<0.01).
Using an animal model of cerebral ischemia (middle cerebral artery occlusion for 90 min to generate embolic stroke followed by reperfusion for 24 hr), we evaluated whether degradation of active STEP contributes to neuronal cell death and subsequent brain damage and if the modified STEP peptide can mitigate ischemic brain damage. At first we examined the temporal profile of STEP's activation and subsequent degradation following cerebral ischemia and reperfusion and also evaluated its correlation with p38 MAPK activation. The findings show a rapid but transient increase in phosphorylation of p38 MAPK within 15 min of ischemic insult. This was followed by a time-dependent decrease in p38 phosphorylation from 30 min, which returned to basal levels by 90 min. […] As a consequence, active STEP limits the duration of activation of p38 MAPK. Progressive down regulation of active STEP through degradation is evident from ˜6 hours after reperfusion resulting in secondary activation of p38 MAPK. […]

B1: TAT-STEP peptide: constitutively active STEP-derived peptide fused to HIV-1 TAT protein transduction domain, myc-tagged; exact mutation set not stated here (protein)
chain: MALYGRKKRRQRRRGEEKVEDDFLDLDAVPETPVFDCVMDIKPETDPASLTVKSMGLQERRGANVSLTLDMCEPGCNEEGFGYLVEPREESAHEYLLSASRVLRAEELHEKALDPFLLQAE
modifications: Mouse
As to B1, in the assay with cultured neurons [1], the “neuronal cell death as assessed by Hoechst DNA staining” value is “blocked neuronal cell death”. In the assay with striatum, the “glutamate-induced excitotoxic cell death in vivo” value is “could attenuate glutamate-induced excitotoxic cell death in vivo”. Moreover, in the assay on cultured neurons [2], the “OGD-induced cell death (Hoechst DNA staining)” value is “significant reduction in OGD-induced cell death”.

B2: TAT-STEP peptide of SEQ ID. No. 11: cell-permeable TAT-STEP peptide given intravenously in MCAO; figure legends call the treatment TAT-STEP-myc (protein)
chain: B1 chain
modifications: myc tag; Mouse
For B2, the “protection against ischemic brain injury (infarct volume, TTC staining)” value in the assay on male Wistar rats (1.5 hr after onset of stroke (MCAO 90 min)) and in the assay with male Wistar rats (immediately before MCAO 90 min) was “significant protection against ischemic brain injury” throughout.

Values taken from patent US10570381B2, “STEP-derived peptide for brain injury treatment” (STC.UNM, priority 2010, dated 2020).
